We go through 141 substances from the supplement of paper PMC12042874.

± gives the uncertainty stated by the source.

This data set is described as follows: amyloid nucleation score (Sup35N fusion, yeast selection) (log enrichment); library NNK1; higher = more nucleation; inactive = no reads after selection. Put shortly: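 The nucleation score, computed with DiMSum, is the log enrichment of output over input reads, centred on the mode score of non-aggregating sequences. Sequences with under 100 input reads were dropped. Reads were generated by Illumina sequencing of plasmid inserts from psi-negative yeast with Sup35N fused to peptides of 20 random codons, induced with 100 μM copper sulfate for 24 hours and grown 7 days at 30°C on medium lacking adenine and uracil.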
LRVNGEKIKASLPFEGD showed an amyloid nucleation score of 0.197 ± 0.51.
Under MIIPD stands 1.14 ± 0.34; under VGNRCGVL, 0.05 ± 0.33; under WPIRVMMGYRLLGMDRNVFG, 0.129 ± 0.68.
Substance NVLWGCQPNFVWDAWLRTEH had an amyloid nucleation score of 0.777 ± 0.73.
Under DMEKVV stands 0.408 ± 0.6; under ECSGVNLNTSYLPGVQEATM, 0.715 ± 0.2; under FFICKFL, -0.427 ± 1.9.
Take GTSSRNLAFLVPWMVYMRVR: the amyloid nucleation score turned out to be 0.635 ± 0.41.
The substance IFILIRYWHCITSSPDVGFG returned an amyloid nucleation score of -0.246 ± 0.61.
Under VDLLNGDWNRSLMKAKPVER stands 0.17 ± 0.29; under FMRDFSGCSNDRFDGDLALC, 0.024 ± 0.62.
Under WWDAEFGGKSRAS stands -0.012 ± 0.57.
Under DHASIGMALYCFCYQVSFIL stands 0.391 ± 0.42; under RVTVIIFTLSRGYIIMSRNR, -1.12 ± 1.1.
For PMSRIKWILLSGLSKGLSYG, the amyloid nucleation score came out at 2.41 ± 0.17.
Under YLDLFTGSSH stands -0.368 ± 0.27; under FIISRD, -0.028 ± 0.34.
Under RNSDFHFIFWY stands 0.865 ± 0.37; under LVCVSQVYGALDTCGPVSMM, 0.379 ± 0.54; under LSRHGKVKCKLLATGGLT, 0.184 ± 0.45.
With VVLWLVDFPSPCPELKNLHF the entry was “inactive”.
Turning to GSKRT, the amyloid nucleation score worked out at 0.316 ± 0.42.
With FPCALSYAGMVSTVRALRKF the figure was 0.228 ± 0.8; with IIEWFSWWARMIFDDFPYYE, “inactive”; with VFLFNTAYESKNPMSKLKVC, -1.24 ± 0.5.
With FYIILNVLFPRQVTCSDK the figure was 5.7 ± 0.075; with PTPEANAIKGLYQRGNCVYG, -0.515 ± 1.
Consider YTYVSMPGR, for which the amyloid nucleation score is -0.358 ± 0.34.
Under HYDLWCLMFFLVSMMSVNCH stands 0.972 ± 0.54; under KSSCRDLIVDVNTGE, 0.765 ± 0.38; under EQRKRDHSRASSVSLKRYMG, 0.657 ± 0.53.
With PPVHSDFKWAFVWVQLVWRG the figure was -0.016 ± 0.53.
With NRIKWVKRFSIPFLTWYEDW the figure was 0.499 ± 0.53; with GPRDFGDAWCYTSNNVKSCS, 0.216 ± 0.48; with MSSNMLSEKWASGTEHVGVV, -0.657 ± 0.69.
As for LLVSVFTRYFPGNVRVTWGT, the amyloid nucleation score was -0.21 ± 0.32.
With TFSFARLRDLKWVMPRVRRS the figure was 0.27 ± 0.44; with RFVMRPFATVSTFSISVPAC, -0.638 ± 0.74.
LLRMIKICYDLRSNLDSWRS: the amyloid nucleation score is -0.529 ± 1.7.
Under CAFCI stands -0.766 ± 1; under ALMDTCSVSSARGHDPCNRP, -0.413 ± 0.78.
With SRYGWGTRSESRQLTSLSCT the figure was -0.304 ± 1.3; with MEPYYVRNSCFCRIRDRNF, -0.21 ± 0.33.
In turn, TRRDNVPQHNLGVTLLMVRE displayed an amyloid nucleation score of -1.29 ± 2.7.
With RWMSYHIVPRRGSYCVTTLT the figure was 0.492 ± 0.85.
With TRGVGYFIREIFGS the figure was 0.241 ± 1.4; with FVMSHSL, 0.987 ± 0.43; with CVVLMMGVPAKAGLLLLHWS, 0.297 ± 0.35.
In turn, SAMAWIPFTISPRFEFRTCN registered an amyloid nucleation score of 5.16 ± 0.061.
IALLNGNNLSPT displayed an amyloid nucleation score of 9.502 ± 0.052.
Take IMEGR: the amyloid nucleation score came out at 5.73 ± 0.1.
Under SPRRLGAVMVSRRVGVGKGW stands 0.402 ± 1.4; under IKAELAKCLNTACVKFFCDV, 0.715 ± 0.37.
Under TNDTAPVWHTDLMTDWR stands -0.079 ± 0.57.
Under CRLKSMMVRNSWSVCSSGWG stands 0.32 ± 0.5; under PVMLF, 4.33 ± 0.11.
Turning to VRAEVGQDRVGRM, the amyloid nucleation score came to 0.09 ± 0.44.
Under FIFIDMRRSWDISVKDTRST stands 6.802 ± 0.066; under GVQAVSSPTSVFK, 0.462 ± 0.85; under DSRKSRYGSWVLRWS, “inactive”.
With FQWNAANYANSYPCKLLCSA the figure was 1.78 ± 0.21; with EIQSSRRKITISMPNRSIVV, 0.333 ± 0.25.
With TLYHSI the figure was -0.385 ± 0.56.
In the case of QRCTIYRSSI, the amyloid nucleation score result is “inactive”.
With LTKASHVRLNNVGV the figure was 0.034 ± 0.6.
For the substance LTQLYLVTSSTWVNYSYLKW, the amyloid nucleation score turned out to be 0.742 ± 0.58.
Under WIFSAMVYDSRKLTSYDKSE stands 0.543 ± 0.32; under CSSPRTTLEYWNCFFDHWWS, 2.64 ± 0.2.
As for VQFGQIIEWVFHMLVSTTTI, the amyloid nucleation score was -0.022 ± 0.36.
Under GFVTKDWLSVMRYIYQMLTS stands -0.016 ± 0.4.
With TTRHSNQSIM the figure was 0.344 ± 0.4; with YCLCCHLLKT, “inactive”; with TIDCMLWGYFRNDSTKCTAA, 0.205 ± 0.47.
Turning to RHDALLSGLYHCRCNQLNVC, the amyloid nucleation score came out at 4.2 ± 0.074.
Under TIQPRRWYVYSKQFLWNLCC stands 1.35 ± 0.14.
With YDAIYV the figure was 0.368 ± 0.63.
For LLSFLRSAKIQTGR, the amyloid nucleation score was 0.229 ± 0.38.
With GRMTFFLVWNCVSFFVTQLL the figure was -0.611 ± 2.1; with NNMRYTV, “inactive”; with SYTYCLVVG, 0.157 ± 1.4.
Under CLAGLYNCGGR stands 0.679 ± 0.65; under PRWSLCIPSVLSGVITTIMT, 0.286 ± 0.27.
With RSVSRRGYVGAFPSQVWLGL the figure was 0.214 ± 0.77; with APHTTTLTRKSFDNGCGGFG, 0.001 ± 0.38.
NQFMHGTETYFEDINALVWG registered an amyloid nucleation score of 1.43 ± 0.66.
Take CLSYI: the amyloid nucleation score is -0.172 ± 0.27.
With YQSFLASACSSEPIRFSKQH the figure was 0.915 ± 0.66; with DFIVS, -0.198 ± 0.3.
Under ESAERGVRGSGRGRMNGGMM stands -0.778 ± 0.98.
Under CGLKNFGVLSFRSIDCQRKG stands -1.48 ± 1.1.
STFWENIIVFFHGPYHDMHT: the amyloid nucleation score was -0.647 ± 0.69.
Under TTLVQCQFIPTFCVIPMWLL stands 5.58 ± 0.058.
Under YGLEYVYVVV stands 0.277 ± 1.4.
Substance TTPEAFNSLFAIRGGLLPQR displayed an amyloid nucleation score of -0.415 ± 0.47.
On to VCLVFVFDVSTVPNICCYAT, for which the amyloid nucleation score is -0.189 ± 0.37.
With LQKVFLAVDSYW the figure was -0.347 ± 0.92; with CIWQWVKDNDDNKVAS, -1.04 ± 0.46; with VSSGHLA, 0.032 ± 0.42.
With VELGRLIPPEHETQDLRSGW the figure was 0.258 ± 0.46.
With VAGWRPFILLGGPRLNTVRQ the figure was 0.407 ± 0.67.
Take GGHHVSPVCLEWNNLRWDI: the amyloid nucleation score was found to be 0.897 ± 0.78.
With DCPFKLPFSTRRR the figure was 0.05 ± 0.73; with NFCDSSGI, -0.912 ± 1.2.
Under YRVHVCQEWMGSWCCGCVKG stands 2.54 ± 0.2; under LRLIV, 0.113 ± 0.89.
With LACWLTTRNKCILNSLITLV the figure was 0.08 ± 1.1; with DDGPLWRMKEMCLVTVRGSE, 0.91 ± 0.29.
The substance WNELCHQLNWCICRVAGFVK returned an amyloid nucleation score of -0.637 ± 0.62.
With CRNVRQSCGYIYYCSRKHLA the figure was 0.546 ± 0.49; with FICECCISLMIARHRALKPA, -1 ± 0.67; with AQGVNSFCIEVFHCEGVMDP, -0.003 ± 0.38.
Under ASRMFMSFLYYSMLLWLLNV stands -1.66 ± 0.85.
The substance FIASIG registered an amyloid nucleation score of 0.274 ± 0.79.
With LSGDIFRNHMNRFYL the figure was -0.071 ± 0.27.
With GIQLTVFGLLLCFGTGLKVF the figure was 0.078 ± 0.6.
YLCPFIYMAHSGSSDVCLIV had an amyloid nucleation score of 3.38 ± 0.11.
Under YKMYWISVAVLKRYNLLHQS stands -0.111 ± 0.44; under NFAPRYLAI, 0.295 ± 0.34.
Under TSDFVVPM stands 0.691 ± 0.41; under GELWLAHLLLRSRVRTHRCP, 5.78 ± 0.068.
Under KDALDHHLIMLRGYVVLQS stands -0.891 ± 0.59; under LKGHLHDSILQCRHKALFF, 0.922 ± 0.75.
In the case of TLSGFYPMYHHLCHECVLKP, the amyloid nucleation score is 1.13 ± 0.37.
Under KTSCQSFVGR stands -0.403 ± 0.54; under DDKLLRVLFLMCSPYYTIIG, -0.065 ± 0.22; under CRSHRGHMCSLVSYLAHGSS, “inactive”.
In turn, DACGNWCYCWRALDGQDGSI had an amyloid nucleation score of 0.099 ± 0.31.
Under PRLLLGAHQSYLGACSAGYM stands 1.06 ± 0.71; under QTSDTNWGVLFTVYFLCQDM, -0.059 ± 0.67; under SHIRSWVRSAHAWYIWHGKT, 0.466 ± 0.44.
With CGIING the figure was -1.08 ± 1.7.
Substance FPRHYCTYWG came in with an amyloid nucleation score of -0.157 ± 0.36.
Under EFAYQV stands -0.552 ± 1.5.
Under SLVVEMVNYE stands -0.039 ± 0.29; under ITCLRSCLLFNFSGCTTSDQ, 4.11 ± 0.071; under FNYVILTFWVKYTFSAHCV, -0.271 ± 0.64.
For the substance KVGLDIWGASGTN, the amyloid nucleation score was 0.525 ± 0.48.
With CTYNLTCLWHMELNSSMIMR the figure was 5.37 ± 0.061; with MTYDGCNSCKHLKSGKLRWC, 0.117 ± 0.29; with YMKMMYAIYCLWLRHYSMLF, “inactive”.
